This is an account of results in patent US20090148436A1 (Pfizer, published 2009).

For assay [1], the target named is T1, mature human GDF8 (growth and differentiation factor-8, myostatin) (human, UniProt O14793 267-375).
T1 construct: Recombinant mature GDF8 dimer purified from CHO cell conditioned media; It was biotinylated (Sulfo-NHS-Biotin) in the direct ELISA, the BIAcore work and the ActRIIB plate assay, and unlabeled in the sandwich ELISAs; In the peptide array Cys was replaced by Ser; also called mature GDF-8; GDF-8 dimer
The assay is described as follows: inhibition of the binding of biotinylated GDF8 (20 ng/ml), preincubated with the titrated protein, to plate-coated ActRIIB-Fc; axis OD 450 nm.

The target in assay [2] is T1, mature human GDF8 (growth and …). Nature of the assay: cell-based or functional assay.
Assay [3] shares this target. Nature of the assay: SPR (BIAcore 2000), biotinylated GDF-8 on streptavidin chip, antibody 2.3-300 nM in solution. Background: In SPR one partner is held on a chip, and binding of the other changes the refractive index at the surface.
For another assay, the target named is T2, mature BMP11 (human, UniProt O95390 299-407).
T2 construct: mature; it is not certain that 'human' covers BMP11; It was biotinylated in the ELISA; also called biotinylated BMP11
Nature of the assay: ELISA: antibody titrated on biotinylated BMP11 held on a streptavidin plate (title SA/BIO BMP11 ELISA), OD 450 nm. Background: In an ELISA, binding on a coated surface is turned into a signal by an enzyme label.

The target in assay [4] is T1, mature human GDF8 (growth and …). The assay is described as follows: ELISA: antibody titrated on biotinylated GDF8 held on a streptavidin plate (title SA/BIO GDF8 BINDING ELISA), OD 450 nm.
For assay [5] the target is unchanged. The assay is described as follows: sandwich ELISA: RK22 coated, GDF-8 titrated, biotinylated RK35 as detector, in THST; the concentration is that of GDF-8.
Assay [6] has the same target. The assay is described as follows: BIAcore 2000, RK22 over biotinylated GDF-8 on Sensor Chip SA; Langmuir model (global analysis), row Average of three independent experiments.
Assay [7] has the same target. Nature of the assay: BIAcore 2000, RK22 over biotinylated GDF-8 on Sensor Chip SA; Bivalent model (global analysis), ka1/kd1, row Average of three independent experiments.
For assay [8] the target is unchanged. Nature of the assay: BIAcore 2000, RK22 (lot PK1901, activity 82.54 %) over biotinylated GDF-8 on Sensor Chip SA; 71 RU (2.6.03), Langmuir model (global analysis), Rmax 44.00, Chi2 7.47.
For assay [9] the target is unchanged. The assay is described as follows: BIAcore 2000, RK22 (lot PK1901, activity 82.54 %) over biotinylated GDF-8 on Sensor Chip SA; 45 RU (4.30.03), Langmuir model (global analysis), Rmax 84.00, Chi2 2.12.
Assay [10] has the same target. Nature of the assay: BIAcore 2000, RK22 (lot PK1901, activity 82.54 %) over biotinylated GDF-8 on Sensor Chip SA; 42.4 RU (6.14.03), Langmuir model (global analysis), Rmax 39.4, Chi2 3.67.
Assay [11] shares this target. Nature of the assay: BIAcore 2000, RK22 (lot PK1901, activity 82.54 %) over biotinylated GDF-8 on Sensor Chip SA; 71 RU (2.6.03), Bivalent model (global analysis), ka1/kd1, Rmax 53.00, Chi2 0.84.
The target is the same in assay [12]. Nature of the assay: BIAcore 2000, RK22 (lot PK1901, activity 82.54 %) over biotinylated GDF-8 on Sensor Chip SA; 45 RU (4.30.03), Bivalent model (global analysis), ka1/kd1, Rmax 84.00, Chi2 1.29.
Assay [13] shares this target. Nature of the assay: BIAcore 2000, RK22 (lot PK1901, activity 82.54 %) over biotinylated GDF-8 on Sensor Chip SA; 42.4 RU (6.14.03), Bivalent model (global analysis), ka1/kd1, Rmax 49.2, Chi2 0.299.
The target is the same in assay [14]. The assay is described as follows: soluble ActRIIB as competitor: inhibition of the binding of biotinylated GDF8 (20 ng/ml) to plate-coated ActRIIB-Fc; axis OD 450 nm.

T2 sequence (O95390 299-407): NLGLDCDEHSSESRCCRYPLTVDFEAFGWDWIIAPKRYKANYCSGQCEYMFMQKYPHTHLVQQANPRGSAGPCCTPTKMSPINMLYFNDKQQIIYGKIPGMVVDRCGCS

B1: MYO-029 human IgG1 anti-GDF-8 antibody (antibody, V domains shown)
VH: QVQLVQSGAEVKKPGASVKVSCKASGYTFTSYYMHWVRQAPGQGLEWMGIINPSGGSTSYAQKFQGRVTMTRDTSTSTVYMELSSLRSEDTAVYYCARDENWGFDPWGQGTLVTVSS
VL: SYELTQPPSVSVSPGQTATITCSGHALGDKFVSWYQQGSGQSPVLVIYDDTQRPSGIPGRFSGSNSGNTATLTISGTQAMDEADYFCQAWDSSFVFGGGTKVTVL
Consider B1, for which, in assay [1], the “IC50 (read off the curve)” value was around 0.3 nM.

B2: RK22 murine monoclonal anti-GDF8 antibody (antibody, V domains shown)
VH: QVQLQQSGAELARPGASVKLSCKASGYTFTSYWMQWVKQRPGQGLEWIGAIYPGDGDTRYTQKFKGKATLTADKSSSTAYMQLSSLASEDSAVYYCARMGGYDRYYFDYWGQGTTLTVSS
VL: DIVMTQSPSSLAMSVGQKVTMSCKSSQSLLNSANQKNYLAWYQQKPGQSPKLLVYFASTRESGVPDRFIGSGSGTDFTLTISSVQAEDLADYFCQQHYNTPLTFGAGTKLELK
notes: Mouse monoclonal from a hybridoma (GDF8 knockout mice); It was biotinylated when used as the ELISA detector; also called RK22 antibody; biotinylated RK22
For B2, the “IC50, pGL3(CAGA)12 luciferase reporter in A204 cells treated with 10 ng/ml GDF8” value in assay [2] is 0.4 nM. Also, the Kd came out at 7 nM in assay [3]; 6.89 nM in assay [6]; 15.2 nM in [7]; 3.88 nM in assay [8]; 13.7 nM in assay [9]; 3.09 nM in assay [10]. Besides, the Kd in assay [11] stood at 9.33 nM; in [12], 27.3 nM; in [13], 9.14 nM. Moreover, the figures for the EC50 (in the assay with mature BMP11; in [4]) were 61.2 mg/L and 0.193 mg/L, respectively. Further, the “EC50 (read off the curve)” value in assay [5] is around 0.0003 mg/L. In addition, the Ka was found to be 2.18e+08 M⁻¹ in assay [6]; 8.44e+07 M⁻¹ in assay [7]; 2.58e+08 M⁻¹ in assay [8]; 7.28e+07 M⁻¹ in [9]; 3.24e+08 M⁻¹ in assay [10]; 1.07e+08 M⁻¹ in assay [11]. In addition, the Ka in [12] is 3.67e+07 M⁻¹; in [13] it was 1.09e+08 M⁻¹. Moreover, the koff was found to be 0.000562 s⁻¹ in assay [6]; 0.000708 s⁻¹ in assay [7]; 0.000572 s⁻¹ in assay [8]; 0.000633 s⁻¹ in assay [9]; 0.000482 s⁻¹ in assay [10]; 0.00078 s⁻¹ in assay [11]. The koff came out at 0.00063 s⁻¹ in [12] and 0.000714 s⁻¹ in assay [13]. Moreover, the kon in [6] came out at 116000 M⁻¹ s⁻¹; in assay [7], 61600 M⁻¹ s⁻¹; in assay [8] it was 147000 M⁻¹ s⁻¹; in assay [9] it was 46100 M⁻¹ s⁻¹; in assay [10] it was 156000 M⁻¹ s⁻¹; in [11], 83600 M⁻¹ s⁻¹. Besides, the results for the kon in assay [12] and in [13] were 23100 M⁻¹ s⁻¹ and 78100 M⁻¹ s⁻¹, respectively.

B3: Recombinant ActRIIB-Fc chimera (R&D Systems, Cat. No. 339-RB/CF) (Fc fusion)
chain: SGRGEAETRECIYYNANWELERTNQSGLERCEGEQDKRLHCYASWRNSSGTIELVKKGCWLDDFNCYDRQECVATEENPQVYFCCCEGNFCNERFTHLPEAGGPEVTYEPPPTAPT
notes: Bought construct; also called ActRIIB fusion protein; ActIIRB; Fc part of the bought chimera not given
As to B3, the “IC50 (read off the curve)” value in [14] was around 0.3 nM.

The EC50 is the concentration at which the effect is half-maximal. A high value points to a need for much substance. The term EC50 (read off the curve) denotes the concentration that produces a half-maximal response. As a reminder, the koff is the rate constant with which the complex falls apart. High values mean fast dissociation, low ones slow dissociation. The term kon denotes the second-order rate constant of association. Read a low kon as slower complex formation.
